The experiment deals with T1, bovine serum albumin (bovine, UniProt P02769 25-607).
T1 construct: Control coating; also called BSA
In words: phage ELISA on coated BSA, HRP anti-phage detection. On the procedure:
Recombinant phages were isolated by precipitation with poly(ethylene glycol) (PEG 8000) and samples of Phtlec and PhTN3 phage preparations as well as a sample of helper phage were subjected to an ELISA-type sandwich assay, in which wells of a Maxisorb (Nunc) multiwell plate were first incubated with anti-human tetranectin or bovine serum albumin (BSA) and blocked in skimmed milk or skimmed milk/EDTA. Briefly, cultures of pPhtlec and pPhTN3 phagemid transformed TG1 cells were grown at 37° C. in 2×TY-medium supplemented with 2% glucose and 100 mg/L ampicillin until A₆₀₀ reached 0.5. By then the helper phage, M13K07, was added to a concentration of 5×10⁹ pfu/mL. The cultures were incubated at 37° C. for another 30 min before cells were harvested by centrifugation and resuspended in the same culture volume of 2×TY medium supplemented with 50 mg/L kanamycin and 100 mg/L ampicillin and transferred to a fresh set of flasks and grown for 16 hours at 25° C. Cells were removed by centrifugation and the phages precipitated from 20 mL culture supernatant by the addition of 6 mL of ice cold 20% PEG 8000, 2.5 M NaCl. After mixing the solution was left on ice for one hour and centrifuged at 4° C. to isolate the precipitated phages. […] Phages in the wells were detected after incubation with HRP-conjugated anti-phage conjugate (Amersham Pharmacia, code no. 27-9421-01) followed by further washing.

T1 sequence (P02769 25-607 limits assumed): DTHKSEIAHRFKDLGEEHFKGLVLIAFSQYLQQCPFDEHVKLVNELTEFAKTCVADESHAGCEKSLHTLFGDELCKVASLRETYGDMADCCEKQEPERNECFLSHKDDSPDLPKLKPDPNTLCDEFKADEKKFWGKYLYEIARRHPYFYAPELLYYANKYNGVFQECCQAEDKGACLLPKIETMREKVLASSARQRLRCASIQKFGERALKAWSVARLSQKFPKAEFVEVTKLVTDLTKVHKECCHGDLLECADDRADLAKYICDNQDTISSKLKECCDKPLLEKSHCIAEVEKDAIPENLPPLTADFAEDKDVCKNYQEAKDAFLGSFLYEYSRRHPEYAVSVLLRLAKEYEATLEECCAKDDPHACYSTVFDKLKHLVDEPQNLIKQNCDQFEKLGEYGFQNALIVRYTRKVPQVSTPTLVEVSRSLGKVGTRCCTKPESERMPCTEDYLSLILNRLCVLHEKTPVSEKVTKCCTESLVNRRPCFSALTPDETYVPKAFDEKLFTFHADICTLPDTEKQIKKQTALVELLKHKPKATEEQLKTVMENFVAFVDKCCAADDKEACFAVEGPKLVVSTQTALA

B1: Phtlec phage (Phtlec-gene III fusion protein displayed on recombinant phage) (other)
chain: PAMAEPPTQKPKKIVNAKKDVVNTKMFEELKSRLDTLAQEVALLKEQQALQTVVLKGTKVHMKVFLAFTQTKTFHEASEDCISRGGTLSTPQTGSENDALYEYLRQSVGNEAEIWLGLNDMAAEGTWVDMTGTRIAYKNWETEITAQPDGGKTENCAVLSGAANGKWFDKRCRDQLPYICQFGIVA
notes: Tested as whole phage particles rescued with M13KO7; claim 15 says htlec itself is position 5 Glu to 185 Val of it; also called human Phtlec phages; Phlec; not shown: phage gene III protein fused after the Phtlec part, as encoded by phagemid pCANTAB 5E; limits and any tag in between not
For B1, the binding result was “no binding”.

B2: PhTN3 phage (PhTN3-gene III fusion protein displayed on recombinant phage) (other)
chain: PAMAALQTVCLKGTKVHMKCFLAFTQTKTFHEASEDCISRGGTLSTPQTGSENDALYEYLRQSVGNEAEIWLGLNDMAAEGTWVDMTGARIAYKNWETEITAQPDGGKTENCAVLSGAANGKWFDKRCRDQLPYICQFGIVA
notes: Tested as whole phage particles rescued with M13KO7; claim 18 says hTN3 is position 5 Ala to 141 Val of it; also called human PhTN3 phages; PhCTLD; not shown: phage gene III protein fused after the PhTN3 part, as encoded by phagemid pCANTAB 5E; limits and any tag in between not
In the case of B2, the binding result was “no binding”.
